Measurements as given in patent US7264314B2, “Adrenocorticotropic hormone analogs and related methods” (priority 2004, dated 2007).
No end group written: not given here.

Target: T1, adrenal ACTH receptors such as MC-2R (explanted adrenal membrane) (Mus musculus, UniProt Q64326)
T1 construct: the adrenal halves were macerated or otherwise dissociated using Dounce Homogenizer to form a membrane fraction; from tissue; host or cells: membrane fraction of explanted mouse adrenal glands
Test: in vitro Serum-free Adrenal Competitive Binding Assay
Design: species or system mice
Conditions: cold peptide at 10 nM, 100 nM, 1000 nM
Excerpt: ACTH analog compounds that bind to adrenal membrane with a greater affinity than endogenous unmodified ACTH, and are able to displace unmodified ACTH can be identified using an in vitro Serum-free Adrenal Competitive Binding Assay (Example 3). […] A higher CPM level indicates the presence of greater amounts of the radiolabelled compound. […] Column 220 indicates the level of radio-labeled unmodified mACTH(1–24) detected after combining the explanted adrenal membrane with only the radio-labeled mACTH(1–24) for 2 hours.(no competitive binding). Columns 230, 240, and 250 show the results of competitive binding assays for binding of non-radio-labeled (“cold”) mACTH(1–24) to displace the radio-labeled mACTH(1–24) from the explanted adrenal membrane (measured in column 220) by competitive binding to receptors such as MC-2R on the adrenal membrane. […]
ACTH analogs with the ability to bind adrenal receptors with a greater affinity than compounds with known adrenal binding activity (preferably ACTH) can also be identified by performing an in vitro Adrenal Competitive Binding Assay, whereby measurement of the reduction in the amount of the radiolabelled adrenal-binding compound (e.g., ACTH) is measured at various concentrations of non-radio-labeled ACTH analog test compound in a medium containing explanted adrenal membrane. […]

T1 sequence (Q64326 whole entry): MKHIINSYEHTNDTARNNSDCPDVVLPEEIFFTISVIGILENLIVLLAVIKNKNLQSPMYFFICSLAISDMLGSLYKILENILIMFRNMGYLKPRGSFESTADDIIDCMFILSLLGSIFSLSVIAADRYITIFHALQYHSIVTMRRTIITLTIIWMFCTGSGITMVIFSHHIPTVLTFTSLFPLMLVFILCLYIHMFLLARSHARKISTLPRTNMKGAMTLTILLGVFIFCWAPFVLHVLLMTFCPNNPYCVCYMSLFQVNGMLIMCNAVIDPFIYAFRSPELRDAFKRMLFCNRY
T1 sequence (Q9D159 whole entry partner): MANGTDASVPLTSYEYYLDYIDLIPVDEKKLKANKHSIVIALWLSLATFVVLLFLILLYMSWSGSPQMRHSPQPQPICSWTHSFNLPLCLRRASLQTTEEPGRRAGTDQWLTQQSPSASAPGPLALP

N-Ser^1-Tyr-Ser-Met-Glu^5-His-Phe-Arg-Trp-Gly^10-Lys-Pro-Val-Gly-Lys^15-Arg-Ala-Ala-Trp-Val^20-Lys-Val-Tyr-Pro-Ac (SYSMEHFRWGKPVGKRAAWVKVYP; not fully specified (C-terminus); printed as N-Ser1-Tyr-Ser-Met-Glu5-His-Phe-Arg-Trp-Gly10-Lys-Pro-Val-Gly-Lys15-Arg-Ala-Ala-Trp-Val20-Lys-Val-Tyr-Pro-Ac) [AT814]
displacement of radio-labeled mACTH(1–24) from explanted adrenal membrane (CPM): displacement of the radio-labeled mACTH(1–24)
